In paper PMC4081106 (Nucleic Acids Research, 2014):

Biological target: the molecule itself
Assay: SEC + SEC-MALS

B1: TtcA protein from Escherichia coli, N-terminal hexahistidine-tagged (6his-TtcA) (enzyme, E. coli, UniProt P76055 1-311, looked up)
chain: MQENQQITKKEQYNLNKLQKRLRRNVGEAIADFNMIEEGDRIMVCLSGGKDSYTMLEILRNLQQSAPINFSLVAVNLDQKQPGFPEHVLPEYLEKLGVEYKIVEENTYGIVKEKIPEGKTTCSLCSRLRRGILYRTATELGATKIALGHHRDDILQTLFLNMFYGGKMKGMPPKLMSDDGKHIVIRPLAYCREKDIQRFADAKAFPIIPCNLCGSQPNLQRQVIADMLRDWDKRYPGRIETMFSAMQNVVPSHLCDTNLFDFKGITHGSEVVNGGDLAFDREEIPLQPACWQPEEDENQLDELRLNVVEVK
stoichiometry N: 2
